This passage reports stoichiometry N results from paper PMC6118821.

A word on the stoichiometry N: it is the number of molecules, sites or subunits per partner or assembly.

This test deals with Nucleosome with symmetrical linkers of 14 base pairs (nucleosome of the 2Chd1:1Nucleosome complex) (Xenopus laevis). The test is described as follows: cryo-EM structure; 2:1 complex of ScChd1(1-1305Δ57–88) and a nucleosome with symmetrical 14 bp linkers, ADP-BeFx; envelope at 10-11 Å, two Chd1 and a nucleosome rigid-body docked.

For the substance “ScChd1(1-1305Δ57–88) (from UniProt P32657 1-1305) (enzyme)”, the stoichiometry N was found to be 2.
